Results on twelve molecules are retold here after patent publication US9145555B2, “Integrated—ligand-responsive microRNAs” (California Institute of Technology, priority 2009, dated 2015).

Series [1] has as its system xanthine aptamer. The settings on record: cited from earlier work.
The test system of series [2] is transcript encoding the green fluorescent protein (GFP) in HEK 293 cells stably expressing GFP. Kind of series: Cell culture assay for miRNA activity (GFP silencing, transient transfection, flow cytometry). It is filed as cell-based, human. The settings on record: for response of GFP levels to tetracycline: 100 μM tetracycline; for GFP silencing: single copy, absence of ligand; for response of GFP levels to theophylline: transient transfection with varying theophylline concentrations; for response of GFP levels to hypoxanthine: 5 mM hypoxanthine. From the text: To examine the relationship between bulge size in the basal segments and gene silencing, we developed a general cell culture assay for miRNA activity (FIG. 1D). miRNAs designed to target a transcript encoding the green fluorescent protein (GFP) were inserted into the 3′ untranslated region (UTR) of a constitutively-expressed transcript encoding the fluorescent protein DsRed-Express. Plasmid DNA encoding the DsRed-Express construct was transfected into HEK 293 cells stably expressing GFP. The level of miRNA-mediated gene silencing was determined by flow cytometry analysis, where DsRed-Express levels were used to distinguish between transfected and untransfected cells. Using the cell culture assay, miRNAs with the same bulges as in the in vitro experiments were tested for silencing efficiency. […] Therefore, proper Drosha processing and gene silencing correlate with the size of the bulge in the miRNA basal segments.
293 and Flp-In-293 cells were maintained in DMEM supplemented with 10% FBS at 37° C. in a 5% CO2—humidified incubator. Transient transfections were conducted with Fugene 6 (Roche) according to the manufacturer's instructions one day after seeding. Immediately prior to transfection, the media was supplemented with the appropriate ligand at the specified concentration. Ligand concentrations were selected to maximize the regulatory response without severely compromising cell viability over the course of the transient assays. The media was replaced two days post-transfection. Three days post-transfection, the cells were trypsinized and subjected to flow cytometry analysis on a Cell Lab Quanta SC MPL (Beckman Coulter) and the resulting data was analyzed using the Flowjo software (Tree Star). Cells were initially gated for viability by electronic volume and side scatter. GFP and DsRed fluorescence of viable cells were measured through a 525 nm and […] band pass filter, respectively, after excitation with a 488 nm laser. Moderate to high DsRed levels served as a transfection control to gate between transfected and untransfected cells. Transfected cells could be distinguished from untransfected cells with this method even when four miRNAs were present in the 3′ UTR of the DsRed-Express encoding transcript (data not shown). GFP levels were calculated as the median fluorescence of the transfected population divided by that of the untransfected population (Beisel et al., 2008). This normalization approach corrected for the bias from pleiotropic effects associated with each small molecule. All ratios were normalized such that the value for DsRed-Express lacking a miRNA under the same conditions was set to 100%.
For orientation: A flow cytometer gives signals particle by particle.

In series [3] the test system is transcript encoding DsRed-Express. As to the kind of experiment: DsRed-Express levels in stable cell lines with La-targeting miRNAs (flow cytometry). The series is classed as cell-based, human. The note with it: four copies; for response of DsRed levels to theophylline: 1.5 mM theophylline; for DsRed-Express down-regulation in cis: stable cell lines. From the text:
To assess the capacity for ligand-responsive miRNAs to regulate gene expression in cis, we measured expression levels for the transcripts harboring the ligand-responsive miRNAs targeting GFP and La. DsRed-Express levels were quantified by flow cytometry under similar conditions as the trans-targeted gene silencing experiments. […] Transcript analysis confirmed that the predominant regulatory mechanism of ligand-responsive miRNAs in cis is mRNA destabilization (FIG. 10).
(§1) Stable transfection of 293-Flp-In cell lines was performed using the Flp-In recombinase system (Invitrogen) according to the manufacturer's instructions to generate isogenic stable cell lines. Integrants were selected using 200 μg/ml hygromycin B (Invitrogen), whereas stable cell lines were maintained in 50 μg/ml hygromycin B. The procedure described above for the fluorescence expression analysis of transiently transfected cell populations was used to analyze the stable cell lines with notable exceptions. Normalization of flow cytometry data to untransfected cells was not performed as all cells express the integrated construct, and all data was normalized to cells lacking a miRNA and grown in the absence of theophylline. Normalization to cells grown under the same conditions was not performed since theophylline differentially affected the two negative controls: no miRNA and a self-targeting miRNA lacking the theophylline aptamer.

Series [4] has as its system endogenous La gene. As to the kind of experiment: La transcript levels by qRT-PCR in stable 293-Flp-In cell lines. The series is classed as cell-based, human. The note with it: four copies; for silencing of La transcript: 112 nt spacer, stable cell lines.
From the text: Most of the synthetic ligand-responsive RNA-based regulatory systems are encoded in the target transcript, providing regulation in cis (Suess and Weigand, 2008). However, the regulation of endogenous genes through cis regulatory strategies is currently limiting due to the lack of directed recombination technologies. To test whether ligand-responsive miRNAs provide a trans regulatory strategy for the effective regulation of endogenous genes, we incorporated a mature miRNA sequence against the endogenous La gene into wt (La1) and th1 (La2) (FIG. 9). Four copies of each miRNA separated by the longest spacer sequence were cloned into the 3′ UTR of the transcript encoding DsRed-Express, and the resulting constructs were stably integrated into a single site in 293-Flp-In cells.
as §1
Transcript levels were measured by qRT-PCR under either transient or stable transfection conditions. […] Samples were prepared in quadruplicate using the iQ SYBR green supermix and data were analyzed using the iCycler iQ software. […] The reported sample error was calculated using the following expression: […]
On the technique in general: Quantitative PCR measures a nucleic acid by following its amplification.

As to `O=c1[nH]cnc2nc[nH]c12` [Hypoxanthine], in series [1], the “affinity for the xanthine aptamer relative to xanthine” value is “comparable affinity”.
With `Cn1c(=O)c2c(ncn2C)n(C)c1=O` [caffeine, reference compound], in series [2] (1 mM caffeine, miRNAs th1 and wt), the “response of GFP silencing to caffeine” value is “insensitive”.

B1: m2: SEQ ID NO. 20; GFP-targeting control miRNA with varied bulge size, no aptamer (nucleic acid)
chain: TCTAGAACGGGAAACACAGTGAGCGAGCACAAGCTGGAGTACAACTATAGTGAAGCCACAGATGTATAGTTGTACTCCAGCTTGTGCCTGCCTACTGCCTCGGGCCC
As for B1, the “response of GFP levels to tetracycline” value in series [2] is given as “negligible tetracycline dependence”.

B2: th1′: SEQ ID NO. 24; theophylline-responsive non-targeting miRNA, scrambled mature miRNA sequence (nucleic acid)
chain: TCTAGAACGGGTCCTGATACCAGCGTGAGCGAGCACAAGCTATCAACATGAGGTAGTGAAGCCACAGATGTACCTCATGTTGATAGCTTGTGCCCGCCTACGCCCTTGGCAGCAGGGCCC
As to B2, the GFP silencing entry in series [2] is recorded as “abolished silencing”. In series [2] (up to four copies separated by 112 nt spacer), the “GFP silencing versus miRNA copy number” value is reported as “no effect on GFP levels”.

B3: La2: SEQ ID NO. 34; La-targeting miRNA with the theophylline aptamer in the basal segments (nucleic acid)
chain: TCTAGAACGGGTCCTGATACCAGCGTGAGCGCTGGAAATCAGTGAAGATAAAATAGTGAAGCCACAGATGTATTTTATCTTCACTGATTTCCATCGCCTACGCCCTTGGCAGCAGGGCCC
modifications: expressed or natural sequence
notes: 34; La-targeting miRNA with the theophylline aptamer in the basal segments
On to B3, for which, in series [3], the “response of DsRed levels to theophylline” value was “increase in DsRed levels in the presence of theophylline” and the “DsRed-Express down-regulation in cis” value is given as “substantial DsRed-Express down-regulation”. The “response of La transcript levels to theophylline” value in series [4] (1.5 mM theophylline for over one week) is listed as “theophylline-dependent increase in La transcript levels”. For the same molecule, the “silencing of La transcript” value in series [4] was “relatively strong silencing”.

B4: th2: SEQ ID NO. 25; th1 altered to target a different location in the GFP transcript (nucleic acid)
chain: TCTAGAACGGGTCCTGATACCAGCGTGAGCGCCAAGAAGATGGTGCGCTCCTGGAGTGAAGCCACAGATGTCCAGGAGCGCACCATCTTCTTGTCGCCTACGCCCTTGGCAGCAGGGCCC
modifications: expressed or natural sequence
notes: 25; th1 altered to target a different location in the GFP transcript
Consider B4, for which, in series [2], the GFP silencing result is reported as “preserved silencing”; the “response of GFP levels to theophylline” value is “preserved silencing and the theophylline response”.

B5: La1: SEQ ID NO. 33; La-targeting miRNA with basal segments similar to miR-30a, no aptamer (nucleic acid)
chain: TCTAGAGTTTGACAGTGAGCGCTGGAAATCAGTGAAGATAAAATAGTGAAGCCACAGATGTATTTTATCTTCACTGATTTCCATTGCCTACTGCCTCGGACTGAATTCATAGGGCCC
modifications: expressed or natural sequence
notes: 33; La-targeting miRNA with basal segments similar to miR-30a, no aptamer
Consider B5, for which, in series [3], the “response of DsRed levels to theophylline” value is recorded as “not observed” and the “DsRed-Express down-regulation in cis” value is reported as “substantial DsRed-Express down-regulation”. The “silencing of La transcript” value in series [4] was “relatively strong silencing”.

B6: tc1: SEQ ID NO. 30; GFP-targeting miRNA harboring the tetracycline aptamer (nucleic acid)
chain: TCTAGAACGGGTCCTAAAACATACCGTGAGCGAGCACAAGCTGGAGTACAACTATAGTGAAGCCACAGATGTATAGTTGTACTCCAGCTTGTGCCTGCCTACGGAGAGGTGAAGAATACGACCACCTAGGGCCC
modifications: miRNA
notes: 30; GFP-targeting miRNA harboring the tetracycline aptamer
For B6, in series [2], the “response of GFP levels to tetracycline” value is recorded as “tetracycline-dependent increase in GFP levels” and the GFP silencing result is given as “down-regulated GFP”.

B7: wt: SEQ ID NO. 18; GFP-targeting miRNA with basal segments similar to the natural miRNA miR-30a, control (nucleic acid)
chain: TCTAGAGTTTGACAGTGAGCGAGCACAAGCTGGAGTACAACTATAGTGAAGCCACAGATGTATAGTTGTACTCCAGCTTGTGCCTGCCTACTGCCTCGGACTGAATTCATAGGGCC
For the molecule B7, in series [2], the GFP silencing entry is listed as “silence GFP with comparable strength” and the “response of GFP levels to theophylline” value is recorded as “insensitive to theophylline”.

B8: xa1: SEQ ID NO. 31; GFP-targeting miRNA with the binding core of the xanthine aptamer (nucleic acid)
chain: TCTAGAACGGGTCCGTGTATTACCTGAGCGAGCACAAGCTGGAGTACAACTATAGTGAAGCCACAGATGTATAGTTGTACTCCAGCTTGTGCCCGCCTAGGTCGACGGGCCC
modifications: expressed or natural sequence
Consider B8, for which the GFP silencing entry in series [2] is reported as “completely abolished silencing”.

B9: xa2: SEQ ID NO. 32; GFP-targeting miRNA with xanthine aptamer binding core and loop, inverted (nucleic acid)
chain: TCTAGAACGGGTCCGAGGTCGACGTGAGCGAGCACAAGCTGGAGTACAACTATAGTGAAGCCACAGATGTATAGTTGTACTCCAGCTTGTGCCCGCCTACGTGTATTACCCAGGGCCC
modifications: expressed or natural sequence
Regarding B9, in series [2], the “response of GFP levels to hypoxanthine” value is “hypoxanthine-dependent increase in GFP levels” and the GFP silencing result is recorded as “substantial GFP silencing”.

B10: m1: SEQ ID NO. 19; GFP-targeting control miRNA with a large bulge in the basal segments, no aptamer (nucleic acid)
chain: TCTAGAACGGGAAGTAATTACAGTGAGCGAGCACAAGCTGGAGTACAACTATAGTGAAGCCACAGATGTATAGTTGTACTCCAGCTTGTGCCTGCCTACTGCCACATAGGGCCC
As for B10, the “response of GFP levels to hypoxanthine” value in series [2] is given as “no effect”.
